According to paper PMC10354202:

T1: (Ig32)2-(R3^IVVI)-(Ig32)2 polyprotein, talin R3 domain with the IVVI mutation
T1 chain: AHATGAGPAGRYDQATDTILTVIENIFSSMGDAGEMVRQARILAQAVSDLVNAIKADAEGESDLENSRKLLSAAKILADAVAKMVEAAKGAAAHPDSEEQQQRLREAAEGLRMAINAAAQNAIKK


Target: T1, (Ig32)2-(R3^IVVI)-(Ig32)2 polyprotein, …
Experiment: magnetic tweezers
Conditions: chain shown with the change; for other: average unbinding time at 40 pN: parent: est. 9 s, read off a plot

| other: unbinding time (tUb) at 40 pN, peak of square-root histogram | other: average unbinding time at 40 pN | Binder |
| --- | --- | --- |
| 3.4 s | 18 s | full-length human vinculin, wild type, P18206-2 K944A; R945A; D1013A; E1015A; E986A (protein) MPVFHTRTIESILEPVAQQISHLVIMHEEGEVDGKAIPDLTAPVAAVQAAVSNLVRVGKETVQTTEDQILKRDMPPAFIKVENACTKLVQAAQMLQSDPYSVPARDYLIDGSRGILSGTSDLLLTFDEAEVRKIIRVCKGILEYLTVAEVVETMEDLVTYTKNLGPGMTKMAKMIDERQQELTHQEHRVMLVNSMNTVKELLPVLISAMKIFVTTKNSKNQGIEEALKNRNFTVEKMSAEINEIIRVLQLTSWDEDAWASKDTEAMKRALASIDSKLNQAKGWLRDPSASPGDAGEQAIRQILDEAGKVGELCAGKERREILGTCKMLGQMTDQVADLRARGQGSSPVAMQKAQQVSQGLDVLTAKVENAARKLEAMTNSKQSIAKKIDAAQNWLADPNGGPEGEEQIRGALAEARKIAELCDDPKERDDILRSLGEISALTSKLADLRRQGKGDSPEARALAKQVATALQNLQTKTNRAVANSRPAKAAVHLEGKIEQAQRWIDNPTVDDRGVGQAAIRGLVAEGHRLANVMMGPYRQDLLAKCDRVDQLTAQLADLAARGEGESPQARALASQLQDSLKDLKARMQEAMTQEVSDVFSDTTTPIKLLAVAATAPPDAPNREEVFDERAANFENHSGKLGATAEKAAAVGTANKSTVEGIQASVKTARELTPQVVSAARILLRNPGNQAAYEHFETMKNQWIDNVEKMTGLVDEAIDTKSLLDASEEAIKKDLDKCKVAMANIQPQMLVAGATSIARRANRILLVAKREVENSEDPKFREAVKAASDELSKTISPMVMDAKAVAGNISDPGLQKSFLDSGYRILGAVAKVREAFQPQEPDFPPPPPDLEQLRLTDELAPPKPPLPEGEVPPPRPPPPEEKDEEFPEQKAGEVINQPMMMAARQLHDEARKWSSKGNDIIAAAKRMALLMAEMSRLVRGGSGTAAALIQCAKDIAKASDEVTRLAKEVAKQCTDKRIRTNLLQVCARIPTISTQLKILSTVKATMLGRTNISAEASEQATEMLVHNAQNLMQSVKETVREAEAASIKIRTDAGFTLRWVRKTPWYQ |
| 4 s | 27 s | full-length human vinculin, wild type, P18206-2 K944A; R945A; D1013A; E1015A (protein) MPVFHTRTIESILEPVAQQISHLVIMHEEGEVDGKAIPDLTAPVAAVQAAVSNLVRVGKETVQTTEDQILKRDMPPAFIKVENACTKLVQAAQMLQSDPYSVPARDYLIDGSRGILSGTSDLLLTFDEAEVRKIIRVCKGILEYLTVAEVVETMEDLVTYTKNLGPGMTKMAKMIDERQQELTHQEHRVMLVNSMNTVKELLPVLISAMKIFVTTKNSKNQGIEEALKNRNFTVEKMSAEINEIIRVLQLTSWDEDAWASKDTEAMKRALASIDSKLNQAKGWLRDPSASPGDAGEQAIRQILDEAGKVGELCAGKERREILGTCKMLGQMTDQVADLRARGQGSSPVAMQKAQQVSQGLDVLTAKVENAARKLEAMTNSKQSIAKKIDAAQNWLADPNGGPEGEEQIRGALAEARKIAELCDDPKERDDILRSLGEISALTSKLADLRRQGKGDSPEARALAKQVATALQNLQTKTNRAVANSRPAKAAVHLEGKIEQAQRWIDNPTVDDRGVGQAAIRGLVAEGHRLANVMMGPYRQDLLAKCDRVDQLTAQLADLAARGEGESPQARALASQLQDSLKDLKARMQEAMTQEVSDVFSDTTTPIKLLAVAATAPPDAPNREEVFDERAANFENHSGKLGATAEKAAAVGTANKSTVEGIQASVKTARELTPQVVSAARILLRNPGNQAAYEHFETMKNQWIDNVEKMTGLVDEAIDTKSLLDASEEAIKKDLDKCKVAMANIQPQMLVAGATSIARRANRILLVAKREVENSEDPKFREAVKAASDELSKTISPMVMDAKAVAGNISDPGLQKSFLDSGYRILGAVAKVREAFQPQEPDFPPPPPDLEQLRLTDELAPPKPPLPEGEVPPPRPPPPEEKDEEFPEQKAGEVINQPMMMAARQLHDEARKWSSKGNDIIAAAKRMALLMAEMSRLVRGGSGTAAALIQCAKDIAKASDEVTRLAKEVAKQCTDKRIRTNLLQVCERIPTISTQLKILSTVKATMLGRTNISAEASEQATEMLVHNAQNLMQSVKETVREAEAASIKIRTDAGFTLRWVRKTPWYQ |
